Assay results: article PMC1762320, “Separation of Anti-Proliferation and Anti-Apoptotic Functions of Retinoblastoma Protein through Targeted Mutations of Its A/B Domain” (PLoS ONE, 2006)

Target: E2F1 induced in SAOS-2-tet-E2F1 cells (human, UniProt Q01094 1-437)
Assay: cell-based or functional assay

Sequence of E2F1 induced in SAOS-2-tet-E2F1 cells (Q01094 whole entry): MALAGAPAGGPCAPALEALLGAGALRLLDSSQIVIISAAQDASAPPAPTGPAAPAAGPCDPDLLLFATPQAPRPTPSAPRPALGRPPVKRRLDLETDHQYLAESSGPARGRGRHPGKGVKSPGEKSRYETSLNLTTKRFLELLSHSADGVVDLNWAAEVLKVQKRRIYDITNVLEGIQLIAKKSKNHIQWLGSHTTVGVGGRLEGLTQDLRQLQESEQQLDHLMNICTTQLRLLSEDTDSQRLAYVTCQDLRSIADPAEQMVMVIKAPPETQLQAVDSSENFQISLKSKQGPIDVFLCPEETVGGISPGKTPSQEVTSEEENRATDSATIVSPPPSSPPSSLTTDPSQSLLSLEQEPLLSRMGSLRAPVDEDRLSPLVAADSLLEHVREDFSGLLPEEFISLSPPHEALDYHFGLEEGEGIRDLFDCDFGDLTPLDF

B1: retinoblastoma protein RB (wild type, expressed in cells) (natural protein, human, UniProt P06400 1-928, looked up)
chain: MPPKTPRKTAATAAAAAAEPPAPPPPPPPEEDPEQDSGPEDLPLVRLEFEETEEPDFTALCQKLKIPDHVRERAWLTWEKVSSVDGVLGGYIQKKKELWGICIFIAAVDLDEMSFTFTELQKNIEISVHKFFNLLKEIDTSTKVDNAMSRLLKKYDVLFALFSKLERTCELIYLTQPSSSISTEINSALVLKVSWITFLLAKGEVLQMEDDLVISFQLMLCVLDYFIKLSPPMLLKEPYKTAVIPINGSPRTPRRGQNRSARIAKQLENDTRIIEVLCKEHECNIDEVKNVYFKNFIPFMNSLGLVTSNGLPEVENLSKRYEEIYLKNKDLDARLFLDHDKTLQTDSIDSFETQRTPRKSNLDEEVNVIPPHTPVRTVMNTIQQLMMILNSASDQPSENLISYFNNCTVNPKESILKRVKDIGYIFKEKFAKAVGQGCVEIGSQRYKLGVRLYYRVMESMLKSEEERLSIQNFSKLLNDNIFHMSLLACALEVVMATYSRSTSQNLDSGTDLSFPWILNVLNLKAFDFYKVIESFIKAEGNLTREMIKHLERCEHRIMESLAWLSDSPLFDLIKQSKDREGPTDHLESACPLNLPLQNNHTAADMYLSPVRSPKKKGSTTRVNSTANAETQATSAFQTQKPLKSTSLSLFYKKVYRLAYLRLNTLCERLLSEHPELEHIIWTLFQHTLQNEYELMRDRHLDQIMMCSMYGICKVKNIDLKFKIIVTAYKDLPHAVQETFKRVLIKEEEYDSIIVFYNSVFMQRLKTNILQYASTRPPTLSPIPHIPRSPYKFPSSPLRIPGGNIYISPLKSPYKISEGLPTPTKMTPRSRILVSIGESFGTSEKFQKINQMVCNSDRVLKRSAEGSNPPKPLKKLRFDIEGSDEADGSKHLPGESKFQQKLAEMTSTRTRMQKQKMNDSMDTSNKEEK
Gal4-Luc luciferase reporter in SAOS-2 cells co-transfected with Gal4-E2F1 (Gal4 DNA-binding domain and transactivation domain of E2F1) and RB: reduction of Gal4-E2F1 activity: 3 fold
